Patent US20170290876A1 (Novartis, published 2017)

Legend:
human VEGF [1] = target: T1, human VEGF (human, UniProt P15692 207-395, biotinylated (site not stated)); assay: Biacore SPR, hVEGF (second row labelled Y32H); the sign of the exponent is misprinted (kd/KD of the same row = 4.9e6); second row labelled Y32H (r159), not r156
T1 construct: Biotinylated human VEGF generated internally; also called hVEGF; hVEGF-biotin
T1 sequence: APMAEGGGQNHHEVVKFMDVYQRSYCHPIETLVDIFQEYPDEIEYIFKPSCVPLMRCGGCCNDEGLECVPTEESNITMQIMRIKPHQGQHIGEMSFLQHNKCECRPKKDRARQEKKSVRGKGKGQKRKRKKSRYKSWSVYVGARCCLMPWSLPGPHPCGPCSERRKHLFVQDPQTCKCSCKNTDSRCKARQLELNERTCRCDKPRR

human VEGF [2] = target: T1, human VEGF; assay: Biacore SPR, hVEGF
human VEGF [3] = target: T1, human VEGF; assay: Biacore SPR, hVEGF (second row labelled Y32H)
Description: At first, individual CDR residues were substituted and the affinity for hVEGF was measured by Biacore as described below. […] HC8T, and HC9T and the affinity of the resulting peptide-tagged Fab for both HA and hVEGF was measured by Biacore as described below (Table 17).
Affinity of optimized HA-binding peptide tags for HA and human VEGF were measured by Biacore. […] In order to determine target kinetics, two different formats were utilized. […] The second format is an anti-fab capture method in which the fab protein samples are captured and the target proteins flowed over at various concentrations.
The sample compartment which includes the analytes, ligands, and regeneration buffer, is kept at 15° C. All other running conditions were carried out at either 25° C. or 37° C. in 1×HBSE+P buffer. […] Data was collected at 10 Hz and analyzed using the Biacore T200 Evaluation Software (GE Healthcare®). This program uses a global fitting analysis method for the determination of rate and affinity constants for each interaction.

B1: NVS4 heavy chain variant Y32H (Fab, V domains shown)
VH: EVQLVESGGGLVQPGGSLRLSCTASGFSLTDHYYMTWVRQAPGKGLEWVGFIDPDDDPYYATWAKGRFTISRDNSKNTLYLQMNSLRAEDTAVYYCAGGDHNSGWGLDIWGQGTLVTVSS
VL: EIVMTQSPSTLSASVGDRVIITCQASEIIHSWLAWYQQKPGKAPKLLIYLASTLASGVPSRFSGSGSGAEFTLTISSLQPDDFATYYCQNVYLASTNGANFGQGTKLTVLK
notes: CDR variant of NVS4; The label Y32H is printed in two rows (r156, r159) with different values
Human VEGF [1]
  kon: 4.91e+06 M⁻¹ s⁻¹
Human VEGF [2]
  Kd: 0.0204 nM
  koff: 0.000112 s⁻¹
  kon: 5.49e+06 M⁻¹ s⁻¹
Human VEGF [3]
  Kd: 0.169 nM
  koff: 0.000829 s⁻¹
